# According to the RNAGym collection of RNA variant scans (doi:10.1021/acssynbio.7b00057):
# B1: Pistol ribozyme (parent)
# chain: GGGUCGUUGUUCCAUAAUCGCGUGGAUAUGGCACGCAAGUUUCUACCGGGCACCGUAAAUGUCCGACUGGAGCCGUUCGGGCGGCUAUAAACAGACCUCAGGCCCGAAGCGUGGCGGCACCUGCCGCCGGUGGUAAAAAAGAUCGGAAGAGCACACGUCU
# Variants of: B1
# Assay: aptazyme ON/OFF ratio, guanine; higher = stronger switching; co-transcriptional cleavage with and without guanine
row,Variant,aptazyme ON/OFF ratio
1,U7G U8A G9C U11A C13A,1.05
2,U7G U8A G9C U11A C13G,1.02
3,U7G U8A G9A U10G U11A C12A,1.12
4,U7G U8A G9A U10G U11A C12G,1.11
5,U7G U8A G9A U10G U11A C12U,0.997
6,U7G U8A G9C U10G U11C,1.03
7,U7G U8A G9C U10G U11A,1.04
8,U7G U8A G9C U10G U11G,1.14
9,U7G U8A G9C U10A C12U,1.03
10,U7G U8A G9C U10A C12G,1.01
11,U7G U8A G9C U10A C12A,1.03
12,U7G U8A G9C U10G U11G C12A C13A,1.05
13,U7G U8A G9C U10G U11G C12A C13U,1.03
14,U7G U8A G9C U10G U11G C12A C13G,1.03
15,U7G U8A G9A U11C C12U C13A,1.23
16,U7G U8A G9A U11C C12U C13G,1.29
17,U7G U8A G9A U11C C12U C13U,1.17
18,U7G U8A G9C U10A C12U C13G,0.956
19,U7G U8A G9C U10A C12U C13U,1.05
20,U7G U8A G9C U10A C12U C13A,1.03
21,U7G U8A G9A U10G U11C C13A,1.09
22,U7G U8A G9A U10G U11C C13G,1.08
23,U7G U8A G9A U10G U11C C13U,1.05
24,U7G U8A G9A U11G C12A,1.08

row,Variant,aptazyme ON/OFF ratio
1,U7G U8A G9A U11G C12G,1.41
2,U7G U8A G9A U11G C12U,1.44
3,U7G U8A G9C U10C C12G,1.07
4,U7G U8A G9C U10C C12U,1.06
5,U7G U8A G9C U10C C12A,1.02
6,U7G U8A G9C U10G U11A C12U C13G,1.06
7,U7G U8A G9C U10G U11A C12U C13U,1.03
8,U7G U8A G9C U10G U11A C12U C13A,1.03
9,U7G U8A G9C U10G U11A C12A,1
10,U7G U8A G9C U10G U11A C12G,1.06
11,U7G U8A G9C U10G U11A C12U,1.02
12,U7G U8A G9C U10C U11G C13A,1.04
13,U7G U8A G9C U10C U11G C13U,1.03
14,U7G U8A G9C U10C U11G C13G,1.03
15,U7G U8A G9C U10C U11G C12G C13U,1.02
16,U7G U8A G9C U10C U11G C12G C13A,1.02
17,U7G U8A G9C U10C U11G C12G C13G,1.02
18,U7G U8A G9C U10A U11A C12A C13A,1.04
19,U7G U8A G9C U10A U11A C12A C13G,1.03
20,U7G U8A G9C U10A U11A C12A C13U,1.02
21,U7G U8A G9C U10G U11C C12A,1.04
22,U7G U8A G9C U10G U11C C12U,1.05
23,U7G U8A G9C U10G U11C C12G,1.04
24,U7G U8A G9A U10G C13G,1.2

row,Variant,aptazyme ON/OFF ratio
1,U7G U8A G9A U10G C13U,1.35
2,U7G U8A G9C U10C U11A C12G,1.05
3,U7G U8A G9C U10C U11A C12U,1.07
4,U7G U8A G9C U10C U11A C12A,1.03
5,U7G U8A G9C U10C U11C C12G C13A,1.05
6,U7G U8A G9C U10C U11C C12G C13U,1.03
7,U7G U8A G9C U10C U11C C12G C13G,1.04
8,U7G U8A G9C U10A U11C C12G,1.05
9,U7G U8A G9C U10A U11C C12A,1.05
10,U7G U8A G9C U10A U11C C12U,1.04
11,U7G U8A G9A U11A C12U C13A,1.17
12,U7G U8A G9A U11A C12U C13G,1.04
13,U7G U8A G9A U11A C12U C13U,1.06
14,U7G U8A G9C U10C U11G C12U C13G,1.03
15,U7G U8A G9C U10C U11G C12U C13A,1.05
16,U7G U8A G9C U10C U11G C12U C13U,1.04
17,U7G U8A G9C U10G U11C C12G C13G,1.03
18,U7G U8A G9C U10G U11C C12G C13A,1.03
19,U7G U8A G9C U10G U11C C12G C13U,1.03
20,U7G U8A G9C U11A C12A C13G,1.05
21,U7G U8A G9C U11A C12A C13U,1.04
22,U7G U8A G9C U11A C12A C13A,1.01
23,U7G U8A G9C U10C U11A C13A,1.1
24,U7G U8A G9C U10C U11A C13G,1.06

row,Variant,aptazyme ON/OFF ratio
1,U7G U8A G9C U10C U11A C13U,1.1
2,U7G U8A G9C U10C U11G C12U,1.12
3,U7G U8A G9C U10C U11G C12G,1.03
4,U7G U8A G9C U10C U11G C12A,1.08
5,U7G U8A G9A U11A C12A C13G,1.08
6,U7G U8A G9A U11A C12A C13U,1.21
7,U7G U8A G9A U11A C12A C13A,1.16
8,U7G U8A G9C U10G U11G C12G C13U,1.01
9,U7G U8A G9C U10G U11G C12G C13G,1.05
10,U7G U8A G9C U10G U11G C12G C13A,1.05
11,U7G U8A G9C U10C U11G C12A C13A,1.02
12,U7G U8A G9C U10C U11G C12A C13U,1.01
13,U7G U8A G9C U10C U11G C12A C13G,1
14,U7G U8A G9C U10A U11G C12A C13G,1.05
15,U7G U8A G9C U10A U11G C12A C13U,1.04
16,U7G U8A G9C U10A U11G C12A C13A,1.05
17,U7G U8A G9A U10G U11A C13U,1.03
18,U7G U8A G9A U10G U11A C13G,1.06
19,U7G U8A G9A U10G U11A C13A,1.06
20,U7G U8A G9C U11C,1.05
21,U7G U8A G9C U11A,1.14
22,U7G U8A G9C U10C C12A C13G,1.03
23,U7G U8A G9C U10C C12A C13U,1.01
24,U7G U8A G9C U10C C12A C13A,1.07

row,Variant,aptazyme ON/OFF ratio
1,U7G U8A G9C U10G C12U C13U,1.06
2,U7G U8A G9C U10G C12U C13G,1.03
3,U7G U8A G9C U10G C12U C13A,1.06
4,U7G U8A G9C U10A U11A C13G,1.04
5,U7G U8A G9C U10A U11A C13A,1.05
6,U7G U8A G9C U10A U11A C13U,1.04
7,U7G U8A G9A U10G U11G C12U C13G,1.18
8,U7G U8A G9A U10G U11G C12U C13A,1.4
9,U7G U8A G9A U10G U11G C12U C13U,1.17
10,U7G U8A G9A U10G U11C C12G C13A,1.1
11,U7G U8A G9A U10G U11C C12G C13U,1.11
12,U7G U8A G9A U10G U11C C12G C13G,1.04
13,U7G U8A G9C U10G U11A C12A C13U,1.03
14,U7G U8A G9C U10G U11A C12A C13A,1.04
15,U7G U8A G9C U10G U11A C12A C13G,0.999
16,U7G U8A G9C U10A C13G,1.01
17,U7G U8A G9C U10A C13U,1.02
18,U7G U8A G9C U10A C13A,1.03
19,U7G U8A G9C U10G U11A C13U,1.03
20,U7G U8A G9C U10G U11A C13A,1.05
21,U7G U8A G9C U10G U11A C13G,1.02
22,U7G U8A G9C U10A C12A C13U,1.06
23,U7G U8A G9C U10A C12A C13G,1.01
24,U7G U8A G9C U10A C12A C13A,1.05

row,Variant,aptazyme ON/OFF ratio
1,U7G U8A G9C U10G U11G C12U C13U,1.15
2,U7G U8A G9C U10G U11G C12U C13G,1.03
3,U7G U8A G9C U10G U11G C12U C13A,1.07
4,U7G U8A G9C U10A C12G C13G,1.06
5,U7G U8A G9C U10A C12G C13A,1.04
6,U7G U8A G9C U10A C12G C13U,1.03
7,U7G U8A G9C C12A C13A,1.04
8,U7G U8A G9C C12A C13G,1.03
9,U7G U8A G9C C12A C13U,0.986
10,U7G U8A G9C U11C C12A C13U,1.06
11,U7G U8A G9C U11C C12A C13G,1.04
12,U7G U8A G9C U11C C12A C13A,1.04
13,U7G U8A G9C U11C C12U C13A,1.06
14,U7G U8A G9C U11C C12U C13G,1.08
15,U7G U8A G9A U11A C12G C13A,1.17
16,U7G U8A G9A U11A C12G C13G,1.09
17,U7G U8A G9A U11A C12G C13U,1.14
18,U7G U8A G9C U10G C12G,1.06
19,U7G U8A G9C U10G C12U,1.03
20,U7G U8A G9C U10G C12A,1.02
21,U7G U8A G9C U10C U11C C12G,1.03
22,U7G U8A G9C U10C U11C C12A,1.04
23,U7G U8A G9C U10C U11C C12U,1.03
24,U7G U8A G9C U10G U11C C12U C13U,1.04

row,Variant,aptazyme ON/OFF ratio
1,U7G U8A G9C U10G U11C C12U C13G,1.03
2,U7G U8A G9C U10G U11C C12U C13A,1.05
3,U7G U8A G9A U11A,1.45
4,U7G U8A G9A U11G,1.26
5,U7G U8A G9A U11C,1.03
6,U7G U8A G9A U11C C13G,1.06
7,U7G U8A G9A U11C C13A,1.07
8,U7G U8A G9A U11C C13U,1.06
9,U7G U8A G9C U10A U11C C12U C13G,1.06
10,U7G U8A G9C U10A U11C C12U C13U,1.04
11,U7G U8A G9C U10A U11C C12U C13A,1.03
12,U7G U8A G9A U10G U11C C12U,1.09
13,U7G U8A G9A U10G U11C C12G,1.17
14,U7G U8A G9A U10G U11C C12A,1.13
15,U7G U8A G9C U11C C12U,1.11
16,U7G U8A G9C U11C C12A,1.11
17,U7G U8A G9C U11C C12G,1.05
18,U7G U8A G9C U11C C12G C13G,1.03
19,U7G U8A G9C U11C C12G C13U,1.04
20,U7G U8A G9C U11C C12G C13A,1.02
21,U7G U8A G9C U10G U11A C12G C13U,1.07
22,U7G U8A G9C U10G U11A C12G C13G,1.04
23,U7G U8A G9C U10G U11A C12G C13A,1.01
